Assay results reported in doi:10.1101/2023.12.21.572918 (bioRxiv, 2023).

Target: full length native GPC (strain Josiah) expressed on HEK293 cells (Lassa virus, strain Josiah, UniProt P08669)
Assay: flow cytometry on cells
Settings: one partner purified

Sequence of full length native GPC (strain Josiah) expressed on HEK293 cells (P08669 whole entry, looked up): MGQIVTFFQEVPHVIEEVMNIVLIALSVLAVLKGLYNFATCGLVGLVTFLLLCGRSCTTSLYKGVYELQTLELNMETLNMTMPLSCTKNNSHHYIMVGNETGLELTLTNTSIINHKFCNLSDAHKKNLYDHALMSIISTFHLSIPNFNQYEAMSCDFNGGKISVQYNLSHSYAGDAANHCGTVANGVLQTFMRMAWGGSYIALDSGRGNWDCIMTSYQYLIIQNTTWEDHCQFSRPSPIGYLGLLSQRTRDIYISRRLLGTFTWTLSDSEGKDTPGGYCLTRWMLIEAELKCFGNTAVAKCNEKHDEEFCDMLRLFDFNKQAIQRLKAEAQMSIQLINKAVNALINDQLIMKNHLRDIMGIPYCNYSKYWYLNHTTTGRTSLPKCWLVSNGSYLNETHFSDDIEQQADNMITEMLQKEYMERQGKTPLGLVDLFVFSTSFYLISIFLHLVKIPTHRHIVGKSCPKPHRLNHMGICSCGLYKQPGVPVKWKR

B1: 25.10C IgG (antibody, V domains shown)
VH: QVQLQESGGGLVKPGGSLRLSCTASGFNFNKYNMNWVRQAPGKGLEWVSSISALSTYIYYADSLKGRFTVSRDNAKNSLFLQMNSLRDDDTAVYYCAREIRRASTWSADLWGRGTLVTVSS
VL: DIQMTQSPSSLSASVGDRVIITCRASQSISSSLNWYQQKPGKAPKLLIYAAVNLETGVPSRFSGSGFGTDFTLAISNVQPEDFATYYCQQSDTRTFGRGTKLDVK
binding result: binds
